# Laboratory results: article PMC10458530, “Synthesis and Evaluation of ePSMA-DM1: A New Theranostic Small-Molecule Drug Conjugate (T-SMDC) for Prostate Cancer” (Pharmaceuticals, 2023)
# Where two headings read alike, the source gives them in different places. Non-standard residues stand in square brackets, D forms with d. Residues, ends and D or L forms follow the SMILES beside them. *: point of attachment. Propanoyl(3-SS-DM1) = COc1cc2cc(c1Cl)N(C)C(=O)C[C@H](OC(=O)[C@H](C)N(C)C(=O)CCSSCCC(=O)*)[C@]1(C)O[C@H]1[C@H](C)[C@@H]1C[C@@](O)(NC(=O)O1)[C@H](OC)/C=C/C=C(\C)C2; DOTA = O=C(O)CN1CCN(CC(=O)O)CCN(CC(=O)*)CCN(CC(=O)O)CC1; EuK = O=C(O)CC[C@H](NC(=O)N[C@@H](CCCCN*)C(=O)O)C(=O)O; Sta = CC(C)C[C@H](N)[C@@H](O)CC(=O)O; Ahx = NCCCCCC(=O)O
# How the values were obtained:
# [1] = Ex vivo biodistribution; format: in vivo, mouse; conditions: male, mouse, intravenous, total radioactivity; for tissue uptake at 1 h: 1 h p.i.; for tissue uptake at 4 h: 4 h p.i.; for tissue uptake at 24 h: 24 h p.i.
# Protocol: Animal experiments were performed using male BALB/c nude mice (8–10 weeks old; Janvier Labs, Le Genest-Saint-Isle, France). Animals were housed in individually ventilated cages (Blue line IVC, 2 mice per cage) under sterile standard conditions with cage enrichments present and free access to animal chow (Sniff GmbH, Soest, Germany) and water. They were acclimated for 1 week prior to experiments. Mice were subcutaneously inoculated with 4.0 × 10^6 LS174T cells in the right flank diluted in 100 μL of cell suspension […]. The average tumor volume size per group (n = 4) was of 206.2 ± 7.9 mm^3 (average weight of 105.8 ± 7.3 mg) after non-blinded grouping to enable homogenous tumor size distribution. [^111In]In-ePSMA-DM1 was injected intravenously via the tail vein. All experiments were approved by the institutional Animal Welfare Committee and were conducted in accordance to the guidelines of the Revised Dutch Act on Animal Experimentation (WOD).
# Mice were intravenously injected with ~1 nmol of [^111In]In-ePSMA-DM1 (5 MBq). Mice (n = 4/timepoint) were euthanized by cervical dislocation at 1, 4 and 24 h p.i. A block group (co-injection of 50 nmol of PSMA-617) was included, and mice were euthanized at 4 h p.i. Organs (blood, heart, lungs, liver, spleen, stomach, intestines, pancreas, kidneys, muscle, skin, bone and prostate) and the tumors were collected in pre-weighed tubes, weighed after organ collection, and measured in the γ-counter, for which the calibration factor was determined by measuring different known activities of In-111. Activity was corrected for decay, and uptake was expressed as percentage of the injected dose per gram of the tissue (% ID/g). The biological half-lives in tissues of [^111In]In-ePSMA-DM1 were determined using a one-phase decay algorithm in GraphPad Prism 9.0 (GraphPad Software, Boston, MA, USA).
# [2] = LogD7.4 by shake-flask method; format: physicochemical; conditions: PBS pH 7.4/n-octanol
# Protocol: The distribution coefficients (LogD7.4 values) were determined by the shake-flask method, in which 2 μL (~0.5 MBq) of [^111In]In-ePSMA-DM1 was added to an Eppendorf tube containing 1 mL of PBS (0.01 M, pH 7.4)/n-octanol (v/v, 1:1). After vigorous vortexing, the solution was centrifuged at 2500 g for 3 min for phase separation. The n-octanol phase was separated from the PBS phase into a new Eppendorf tube and centrifuged for 15 min. Samples (3 × 10 μL) of the two phases were taken out and measured in the γ-counter. LogD7.4 values were calculated by using the following equation: LogD7.4 = log [(counts in octanol phase)/(counts in aqueous phase)] and the experiment was performed in triplicate.
# [3] = BALB/c nude (BALB/c nu/nu), blood, 1 nmol, read-out: uptake in blood
# [4] = BALB/c nude (BALB/c nu/nu), heart, 1 nmol, read-out: uptake in heart
# [5] = BALB/c nude (BALB/c nu/nu), kidney, 1 nmol, read-out: uptake in kidney
# [6] = BALB/c nude (BALB/c nu/nu), liver, 1 nmol, read-out: uptake in liver
# [7] = BALB/c nude (BALB/c nu/nu), lung, 1 nmol, read-out: uptake in lung
# [8] = BALB/c nude (BALB/c nu/nu), muscle, 1 nmol, read-out: uptake in muscle
# [9] = BALB/c nude (BALB/c nu/nu), pancreas, 1 nmol, read-out: uptake in pancreas
# [10] = BALB/c nude (BALB/c nu/nu), skin, 1 nmol, read-out: uptake in skin
# [11] = BALB/c nude (BALB/c nu/nu), spleen, 1 nmol, read-out: uptake in spleen
# [12] = BALB/c nude (BALB/c nu/nu), stomach, 1 nmol, read-out: uptake in stomach
# [13] = BALB/c nude (BALB/c nu/nu), tumor, 1 nmol, read-out: uptake in tumor
# [14] = BALB/c nude (nu/nu), bone, 1 nmol, read-out: uptake in bone
# [15] = BALB/c nude (nu/nu), intestines, 1 nmol, read-out: uptake in intestines
# [16] = BALB/c nude (nu/nu), prostate, 1 nmol, read-out: uptake in prostate
smiles,measurement,setting,value
"COc1cc2cc(c1Cl)N(C)C(=O)C[C@H](OC(=O)[C@H](C)N(C)C(=O)CCSSCCC(=O)NCCCC[C@H](NC(=O)CN1CCN(CC(=O)O)CCN(CC(=O)O)CCN(CC(=O)O)CC1)C(=O)N[C@@H](CC(=O)O)C(=O)N[C@@H](Cc1ccccc1)C(=O)N[C@@H](CC(C)C)[C@@H](O)CC(=O)NCCCCCC(=O)NCCCC[C@H](NC(=O)N[C@@H](CCC(=O)O)C(=O)O)C(=O)O)[C@]1(C)O[C@H]1[C@H](C)[C@@H]1C[C@@](O)(NC(=O)O1)[C@H](OC)/C=C/C=C(\C)C2 [[^111In]In-ePSMA-DM1, metal not drawn] ({DOTA}-K(Propanoyl(3-SS-DM1))DF[Sta][Ahx]-EuK)",tissue uptake at 1 h,[1]; [3],1.43 ± 0.04 %ID/g
same,tissue uptake at 4 h,[1]; [3],0.37 ± 0.01 %ID/g
same,tissue uptake at 24 h,[1]; [3],0.04 %ID/g
same,tissue uptake at 4 h,"[1]; BALB/c nude (BALB/c nu/nu), blood, block (co-injection of PSMA-617), read-out: uptake in blood",0.3 ± 0.04 %ID/g
same,tissue uptake at 1 h,[1]; [4],0.65 ± 0.1 %ID/g
same,tissue uptake at 4 h,[1]; [4],0.23 ± 0.04 %ID/g
same,tissue uptake at 24 h,[1]; [4],0.1 ± 0.02 %ID/g
same,tissue uptake at 4 h,"[1]; BALB/c nude (BALB/c nu/nu), heart, block (co-injection of PSMA-617), read-out: uptake in heart",0.18 %ID/g
same,tissue uptake at 1 h,[1]; [5],34 ± 2.54 %ID/g
same,tissue uptake at 4 h,[1]; [5],31.6 ± 1.78 %ID/g
same,tissue uptake at 24 h,[1]; [5],13.2 ± 0.95 %ID/g
same,tissue uptake at 4 h,"[1]; BALB/c nude (BALB/c nu/nu), kidney, block (co-injection of PSMA-617), read-out: uptake in kidney",24 ± 1.46 %ID/g
same,tissue uptake at 1 h,[1]; [6],0.68 %ID/g
same,tissue uptake at 4 h,[1]; [6],0.63 ± 0.02 %ID/g
same,tissue uptake at 24 h,[1]; [6],0.39 ± 0.04 %ID/g
same,tissue uptake at 4 h,"[1]; BALB/c nude (BALB/c nu/nu), liver, block (co-injection of PSMA-617), read-out: uptake in liver",0.56 ± 0.05 %ID/g
same,tissue uptake at 1 h,[1]; [7],1.34 ± 0.18 %ID/g
same,tissue uptake at 4 h,[1]; [7],0.4 ± 0.03 %ID/g
same,tissue uptake at 24 h,[1]; [7],0.25 ± 0.12 %ID/g
same,tissue uptake at 4 h,"[1]; BALB/c nude (BALB/c nu/nu), lung, block (co-injection of PSMA-617), read-out: uptake in lung",0.51 ± 0.26 %ID/g
same,tissue uptake at 1 h,[1]; [8],0.3 ± 0.06 %ID/g
same,tissue uptake at 4 h,[1]; [8],0.21 ± 0.16 %ID/g
same,tissue uptake at 24 h,[1]; [8],0.07 ± 0.01 %ID/g
same,tissue uptake at 4 h,"[1]; BALB/c nude (BALB/c nu/nu), muscle, block (co-injection of PSMA-617), read-out: uptake in muscle",0.1 ± 0.01 %ID/g
same,tissue uptake at 4 h,[1]; [9],0.17 ± 0.01 %ID/g
same,tissue uptake at 24 h,[1]; [9],0.09 ± 0.01 %ID/g
same,tissue uptake at 4 h,"[1]; BALB/c nude (BALB/c nu/nu), pancreas, block (co-injection of PSMA-617), read-out: uptake in pancreas",0.14 ± 0.02 %ID/g
same,tissue uptake at 1 h,[1]; [10],1.37 ± 0.29 %ID/g
same,tissue uptake at 4 h,[1]; [10],0.75 ± 0.12 %ID/g
same,tissue uptake at 1 h,[1]; [11],1.32 ± 0.28 %ID/g
same,tissue uptake at 4 h,[1]; [11],0.47 ± 0.08 %ID/g
same,tissue uptake at 24 h,[1]; [11],0.27 ± 0.01 %ID/g
same,tissue uptake at 4 h,"[1]; BALB/c nude (BALB/c nu/nu), spleen, block (co-injection of PSMA-617), read-out: uptake in spleen",0.32 ± 0.02 %ID/g
same,tissue uptake at 1 h,[1]; [12],0.8 ± 0.61 %ID/g
same,tissue uptake at 4 h,[1]; [12],0.47 ± 0.32 %ID/g
same,tissue uptake at 4 h,[1]; [13],1.19 ± 0.22 %ID/g
same,tissue uptake at 24 h,[1]; [13],0.5 ± 0.14 %ID/g
same,tissue uptake at 4 h,"[1]; BALB/c nude (BALB/c nu/nu), tumor, block (co-injection of PSMA-617), read-out: uptake in tumor",0.8 ± 0.31 %ID/g
same,tissue uptake at 1 h,[1]; [14],0.73 ± 0.27 %ID/g
same,tissue uptake at 4 h,[1]; [14],0.41 ± 0.06 %ID/g
same,tissue uptake at 24 h,[1]; [14],0.3 ± 0.03 %ID/g
same,tissue uptake at 4 h,"[1]; BALB/c nude (nu/nu), bone, block (co-injection of PSMA-617), read-out: uptake in bone",0.33 ± 0.04 %ID/g
same,tissue uptake at 1 h,[1]; [15],0.56 ± 0.19 %ID/g
same,tissue uptake at 4 h,[1]; [15],0.45 ± 0.2 %ID/g
same,tissue uptake at 24 h,[1]; [15],0.12 ± 0.03 %ID/g
same,tissue uptake at 4 h,"[1]; BALB/c nude (nu/nu), intestines, block (co-injection of PSMA-617), read-out: uptake in intestines",0.56 ± 0.35 %ID/g
same,tissue uptake at 1 h,"[1]; BALB/c nude (nu/nu), pancreas, 1 nmol, read-out: uptake in pancreas",0.43 ± 0.11 %ID/g
same,tissue uptake at 1 h,[1]; [16],1.92 ± 0.87 %ID/g
same,tissue uptake at 4 h,[1]; [16],0.46 ± 0.19 %ID/g
same,tissue uptake at 24 h,[1]; [16],0.16 ± 0.03 %ID/g
same,tissue uptake at 4 h,"[1]; BALB/c nude (nu/nu), prostate, block (co-injection of PSMA-617), read-out: uptake in prostate",0.4 ± 0.18 %ID/g
same,tissue uptake at 24 h,"[1]; BALB/c nude (nu/nu), skin, 1 nmol, read-out: uptake in skin",0.44 ± 0.05 %ID/g
same,tissue uptake at 4 h,"[1]; BALB/c nude (nu/nu), skin, block (co-injection of PSMA-617), read-out: uptake in skin",0.57 ± 0.19 %ID/g
same,tissue uptake at 24 h,"[1]; BALB/c nude (nu/nu), stomach, 1 nmol, read-out: uptake in stomach",0.05 ± 0.02 %ID/g
same,tissue uptake at 4 h,"[1]; BALB/c nude (nu/nu), stomach, block (co-injection of PSMA-617), read-out: uptake in stomach",0.3 ± 0.24 %ID/g
same,tissue uptake at 1 h,"[1]; BALB/c nude (nu/nu), tumor, 1 nmol, read-out: uptake in tumor",2.39 ± 0.29 %ID/g
same,logD,[2],-2.47 ± 0.11
